According to patent US9144594B2, “Cathepsin L mediated diseases and associated methods and products” (University of Miami, priority 2005, dated 2015):
Positions count from the first letter of the chain named. Names may count otherwise. “Also recorded” adds a separate entry of the source.

Experiments:
podocytes = assay: Rhodamine-transferrin uptake (endocytosis) in podocytes; type: cell-based, mouse; conditions: overexpression in podocytes
Protocol: Since dynamin is known to play a major role in regulation of clathrin-mediated endocytosis, it appeared possible that the observed actin phenotypes as described above were indirect consequence of changes in endocytosis. […] While LPS treatment of cells overexpressing dynWT had no effect on endocytosis of rhodamine-transferrin (FIG. 1D), it did induce cell motility and changes in actin cytoskeleton.
Conditionally immortalized mouse podocyte cell lines were grown as described previously (Mundel et al., Exp Cell Res 236; 248-258; (1997)). Dynamin antibodies: Anti-dynamin (hudy 1) monoclonal antibody was purchased from Upstate Technology (Lake Placid, N.Y.); mouse anti-dyn1 monoclonal antibody (MAB 5402) was from Chemicon (Temecula, Calif.); mouse anti-dyn1 monoclonal antibody (VAM-SVO41) was from StressGene (Victoria, Canada). The rabbit antiserum against mouse CatL was used as described (Ishidoh and Kominami, 1994). For immunogold and immunocytochemistry analysis of CatL, we used a rabbit polyclonal antibody against CatL as described before (Ahn et al., Traffic 3, 147-159 (2002)). CatL −/− fibroblasts were maintained as described previously (Hsieh et al., J Immunol 168, 2618-2625 (2002)). Stable CatL knock-down cell lines were generated with a vector-based siRNA directed against CatL (target sequence 5′-GTGGACTGTTCTCACGCT-3; SEQ ID NO.32). Quantitative PCR was performed on a Applied Biosystems 7300 Real-Time PCR System. Fold-expression changes were calculated using the comparative CT method for relative quantitation with the equation 2^−ΔΔCT. Protein expression levels for dynamin and CatL were calculated using densitometric analysis with Kodak imaging software. Statistical significance was assessed with the unpaired t-test with Welch's correction. Transfections with CatL constructs were performed using Lipofectamine 2000 (Invitrogen) following manufacturer's instructions. Immunocytochemical analysis of cultured podocytes was done as described (Reiser et al., J Biol Chem 279, 34827-34832 (2004)). Immunoperoxidase labeling of human tissue was done on formalin fixed kidney biopsies embedded in paraffin. Transmission electron microscopy (TEM) and immunoelectron microscopy (IEM) were performed as described (Regele et al., J Am Soc Nephrol 11, 403-412 (2000)). Subcellular fractionation of cultured cells was performed as described (Damke et al., J Cell Biol 127, 915-934 (1994)). Internalization of rhodamine-transferrin (R-Tfn) was performed using 20 μg/ml R-Tfn in PBS containing 1 mM CaCl2, 1 mM MgCl2, 5 mM glucose, and 0.2% BSA for 10 min at 37° C.

cathepsin L = assay: Generation of dynamin p40 fragment in LPS-treated cultured podocytes (Western blot); type: cell-based, mouse; conditions: podocytes expressing the variant, LPS-treated
Description: Next, it was examined whether cathepsin L could process dynamin in vivo, and whether this processing required GTP binding by dynamin. To this end, cultured podocytes were infected with adenoviruses expressing dynWT as well as different dynamin mutants. Infected podocytes were subsequently treated with LPS. LPS treatment increases cathepsin L presence and the activity in the cytosol (FIG. 3), and thus is expected to induce generation of the 40 kD proteolytic fragment. Respective cytosols were probed using the GTPase antibodies in order to detect N-terminal 40 kD proteolytic fragment. Expression of dynWT in podocytes treated with LPS identified proteolytic fragments that traveled with the same mobility as fragments observed in vitro. […] Furthermore, significant amount of p40 was present in cells expressing dynR725A prior to LPS treatment. […] Given complete protection of cathepsin L cleavage by GTPγS, it was reasoned that LPS treatment was somehow inducing dynR725A self-assembly, which in turn was protecting dynR725A from cathepsin L cleavage. This in turn would explain ability of dynR725A to counteract LPS and PAN treatment (FIG. 1D). […] Biochemical difference between dynWT, dynK694A and dynR725A is that only dynR725A is impaired in the rate of GTP-hydrolysis of assembled dynamin. This is important because GTP-hydrolysis drives disassemble of dynamin. Thus, while all three dynamins are predicted to self-assemble by LPS treatment, only dynR725A will stay assembled due to its inability to hydrolyze GTP. Once assembled dynWT and dynK694A hydrolyze GTP they will fall apart and thus become accessible for cathepsin L cleavage.
To explore CatL-mediated dynamin cleavage in vivo, cultured podocytes were infected with adenoviruses encoding different dynamin mutants and subsequently treated with LPS (FIG. 19G). […] To confirm the identity of the cleavage site, the ELSGGA (SEQ ID NO.29) sequence was mutated to EQSVGA (SEQ ID NO.31) (for simplicity, the mutant is subsequently referred to as dynL356Q). […] Finally, a GTPase-defective dynamin mutant was examined. Dynamin carrying a mutation in its […] (dynR725A) oligomerizes, but is impaired in assembly-stimulated GTP-hydrolysis. DynR725A is therefore predicted to live longer in the assembled state.
Podocytes were grown under non-permissive conditions to 70% confluence. Cells were washed twice with 1×PBS and infected with 1.2 ml of serum-free DMEM media containing 100 μl transactivator virus, 100 μl virus expressing dyn1 or dyn2. After 2 h of infection at 37° C., media containing virus was replaced with full DMEM. If cells were treated with LPS or PAN, 50 μg/ml of LPS or 50 μg/ml PAN was added at this point. 18-24 h post-infection, cells were detached using trypsin and processed either for subcellular fractionation or tested in the motility assays as described in (Reiser et al., J Biol Chem 279, 34827-34832 (2004)). When stated, 20 μM of Z-FF-FMK CatL specific inhibitor (Calbiochem, San Diego, Calif.) was added simultaneously with addition of LPS.

Chain of cathepsin L (P06797 114-333 limits assumed): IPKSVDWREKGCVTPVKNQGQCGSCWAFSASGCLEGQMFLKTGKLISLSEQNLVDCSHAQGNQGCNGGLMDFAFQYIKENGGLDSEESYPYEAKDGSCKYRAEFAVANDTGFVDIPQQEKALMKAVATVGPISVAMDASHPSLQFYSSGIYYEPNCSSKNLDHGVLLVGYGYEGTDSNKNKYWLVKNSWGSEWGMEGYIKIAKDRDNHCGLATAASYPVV

With “dynWT: wild type dynamin overexpressed by adenovirus or delivered as dynamin 1 cDNA” the “transferrin uptake (endocytosis), in words” value (shortened to “transferrin uptake”) (podocytes) was “did not enhance the overall transferring uptake” and the “p40 generation from dynamin variant, in words” value (shortened to “p40 generation”) (cathepsin L) was “resulted in generation of p40”.

B1: dynK44A: dominant-negative dynamin mutant that cannot bind GTP (protein, UniProt Q05193 1-864, looked up, variant K44A)
Dynamin-1: MGNRGMEDLIPLVNRLQDAFSAIGQNADLDLPQIAVVGGQSAGASSVLENFVGRDFLPRGSGIVTRRPLVLQLVNATTEYAEFLHCKGKKFTDFEEVRLEIEAETDRVTGTNKGISPVPINLRVYSPHVLNLTLVDLPGMTKVPVGDQPPDIEFQIRDMLMQFVTKENCLILAVSPANSDLANSDALKVAKEVDPQGQRTIGVITKLDLMDEGTDARDVLENKLLPLRRGYIGVVNRSQKDIDGKKDITAALAAERKFFLSHPSYRHLADRMGTPYLQKVLNQQLTNHIRDTLPGLRNKLQSQLLSIEKEVEEYKNFRPDDPARKTKALLQMVQQFAVDFEKRIEGSGDQIDTYELSGGARINRIFHERFPFELVKMEFDEKELRREISYAIKNIHGIRTGLFTPDMAFETIVKKQVKKIREPCLKCVDMVISELISTVRQCTKKLQQYPRLREEMERIVTTHIREREGRTKEQVMLLIDIELAYMNTNHEDFIGFANAQQRSNQMNKKKTSGNQDEILVIRKGWLTINNIGIMKGGSKEYWFVLTAENLSWYKDDEEKEKKYMLSVDNLKLRDVEKGFMSSKHIFALFNTEQRNVYKDYRQLELACETQEEVDSWKASFLRAGVYPERVGDKEKASETEENGSDSFMHSMDPQLERQVETIRNLVDSYMAIVNKTVRDLMPKTIMHLMINNTKEFIFSELLANLYSCGDQNTLMEESAEQAQRRDEMLRMYHALKEALSIIGDINTTTVSTPMPPPVDDSWLQVQSVPAGRRSPTSSPTPQRRAPAVPPARPGSRGPAPGPPPAGSALGGAPPVPSRPGASPDPFGPPPQVPSRPNRAPPGVPSRSGQASPSRPESPRPPFDL
For B1, the “transferrin uptake” value (podocytes) was “completely inhibited transferring uptake” and the “p40 generation” value (cathepsin L) was “did not result in detectable levels of p40”.

B2: dynK694A: dominant activator dynamin mutant impaired in self-assembly (protein)
chain: B1 Dynamin-1 with A44K, K694A
With B2 the “transferrin uptake” value (podocytes) was “lead to increase in transferring uptake”.

B3: dynR725A: dynamin mutant (SEQ ID NO.4) with impaired GTP hydrolysis capacity (protein, listed as Homo sapiens)
chain: B1 Dynamin-1 with A44K, R725A
In the case of B3, the “transferrin uptake” value (podocytes) is reported as “exhibited the wild-type levels of endocytosis” and the “p40 generation” value (cathepsin L) is reported as “completely abolished presence of the p40; also recorded: did not generate p40”.

B4: dynL356Q, G358V: dynamin mutant (SEQ ID NO.3) not recognized by cathepsin L; ELSGGA mutated to EQSVGA (protein, listed as Homo sapiens)
chain: B1 Dynamin-1 with A44K, L356Q, G358V
With B4 the “p40 generation” value (cathepsin L) was “yielded no p40”.
